From patent US20070219116A1 (TROPHOGEN, published 2007) come the findings set out here.

The target of assay [1] is T1, human FSH receptor (human, UniProt P23945 18-695).
T1 sequence: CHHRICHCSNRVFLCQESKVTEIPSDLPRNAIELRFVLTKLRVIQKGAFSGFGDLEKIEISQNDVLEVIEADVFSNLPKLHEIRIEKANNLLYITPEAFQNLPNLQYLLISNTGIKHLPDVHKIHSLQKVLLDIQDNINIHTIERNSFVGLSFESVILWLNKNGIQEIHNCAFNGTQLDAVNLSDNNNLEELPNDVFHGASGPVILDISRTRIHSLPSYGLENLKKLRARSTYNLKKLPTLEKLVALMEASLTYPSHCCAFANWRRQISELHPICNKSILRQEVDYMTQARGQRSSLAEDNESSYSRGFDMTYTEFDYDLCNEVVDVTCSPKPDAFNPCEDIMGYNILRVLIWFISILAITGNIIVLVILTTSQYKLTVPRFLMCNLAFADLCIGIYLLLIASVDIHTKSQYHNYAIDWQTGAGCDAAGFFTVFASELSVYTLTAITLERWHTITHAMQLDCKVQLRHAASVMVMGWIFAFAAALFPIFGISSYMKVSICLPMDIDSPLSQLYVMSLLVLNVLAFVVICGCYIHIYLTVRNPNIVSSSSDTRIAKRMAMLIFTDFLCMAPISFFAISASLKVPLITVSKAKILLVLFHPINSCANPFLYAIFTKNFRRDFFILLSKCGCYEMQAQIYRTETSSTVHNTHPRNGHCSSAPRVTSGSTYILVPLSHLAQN
The assay can be described thus: cell-based or functional assay.

The target in assay [2] is T2, rat LH receptor (rat, UniProt P16235 27-700, limits assumed).
T2 construct: the form used in the assay is not described; also called rat luteinizing hormone receptor
As to the kind of experiment: not described; data not shown.

In assay [3] the target is T3, human LH receptor (human, UniProt P22888 27-699, limits assumed).
T3 construct: the form used in the assay is not described; also called human luteinizing hormone (receptor)
As to the kind of experiment: not described; data not shown.

T2 sequence (P16235 27-700 limits assumed): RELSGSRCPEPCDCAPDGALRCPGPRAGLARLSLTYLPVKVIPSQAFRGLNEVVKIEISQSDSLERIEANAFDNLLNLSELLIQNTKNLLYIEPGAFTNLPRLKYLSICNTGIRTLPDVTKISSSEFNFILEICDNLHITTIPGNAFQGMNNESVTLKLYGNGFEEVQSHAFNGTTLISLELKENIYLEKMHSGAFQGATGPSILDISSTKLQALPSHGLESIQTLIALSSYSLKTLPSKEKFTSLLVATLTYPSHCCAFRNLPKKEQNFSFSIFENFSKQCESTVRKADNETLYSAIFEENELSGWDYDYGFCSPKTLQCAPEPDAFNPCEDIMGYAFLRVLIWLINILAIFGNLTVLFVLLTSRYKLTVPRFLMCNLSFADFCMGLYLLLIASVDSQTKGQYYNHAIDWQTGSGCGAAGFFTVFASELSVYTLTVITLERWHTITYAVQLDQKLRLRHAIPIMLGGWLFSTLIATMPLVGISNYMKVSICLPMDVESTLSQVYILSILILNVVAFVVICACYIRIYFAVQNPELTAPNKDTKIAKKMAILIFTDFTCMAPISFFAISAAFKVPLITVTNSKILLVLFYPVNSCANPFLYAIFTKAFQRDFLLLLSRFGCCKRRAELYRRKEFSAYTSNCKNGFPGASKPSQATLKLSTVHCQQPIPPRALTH
T3 sequence (P22888 27-699 R124G/N312S limits assumed): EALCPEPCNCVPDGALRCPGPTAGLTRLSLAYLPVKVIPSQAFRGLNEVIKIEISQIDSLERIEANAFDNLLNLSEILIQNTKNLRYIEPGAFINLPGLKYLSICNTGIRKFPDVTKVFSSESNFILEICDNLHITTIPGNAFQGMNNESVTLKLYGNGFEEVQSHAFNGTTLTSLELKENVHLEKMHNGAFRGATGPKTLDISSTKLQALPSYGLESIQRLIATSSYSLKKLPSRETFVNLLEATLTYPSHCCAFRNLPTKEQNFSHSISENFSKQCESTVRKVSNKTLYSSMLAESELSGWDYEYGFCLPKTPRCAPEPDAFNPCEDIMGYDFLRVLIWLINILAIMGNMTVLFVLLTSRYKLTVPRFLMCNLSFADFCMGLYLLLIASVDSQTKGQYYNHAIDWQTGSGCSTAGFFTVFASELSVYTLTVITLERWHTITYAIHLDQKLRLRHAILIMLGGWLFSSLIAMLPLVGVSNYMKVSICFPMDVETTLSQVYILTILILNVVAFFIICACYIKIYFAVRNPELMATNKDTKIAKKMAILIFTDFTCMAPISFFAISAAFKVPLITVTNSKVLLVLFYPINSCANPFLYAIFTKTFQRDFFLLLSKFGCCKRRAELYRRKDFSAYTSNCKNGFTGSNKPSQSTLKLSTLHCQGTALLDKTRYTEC

B1: FSH analog TR-4402: alpha(E14R + Q20R + G73R) + betaE4R (ligand)
chain 1: not shown
chain 2: NSCRLTNITIAIEKEECRFCISINTTWCAGYCYTRDLVYKDPARPKIQKTCTFKELVYETVRVPGCAHHADSLYTYPVATQCHCGKCDSDSTDCTVRGLGPSYCSFGEMKE
Take B1: in assay [1], the “potency, total cAMP production in CHO-FSHR cells, compared to Follistim (wild type FSH)” value amounted to 30 fold. Also, the “potency, total cAMP production in KGN-FSHR cells, compared to wild type FSH” value in assay [1] was found to be 30 fold. Besides, the binding result was “binds” in assay [2] and “no binding” in assay [3].
